Assay results published in patent publication US12440573B2, “Antibody-conjugates for targeting of tumours expressing PTK7” (Synaffix B.V., priority 2022, dated 2025).
Marks after values point to notes of the source that are not given here.

Assays:
[1] = system: PTK7 expressing NCl—H446 tumor model; assay: In vivo efficacy study, NCl—H446 xenograft, with Olaparib (Example 33); parameters: species or system BALB/c nude mice; conditions: ADC 2.5 mg/kg single IV dose; Olaparib 50 mg/kg orally QD×21 days
Method: (§1) NCl—H446, lung cancer xenograft model cell line was maintained in vitro using RPMI-1640 medium supplemented with 10% FBS in humidified cell culture incubator at 37° C. with standard 5% CO2 specs. The cells in an exponential growth phase were harvested and counted for tumor inoculation.
BALB/c nude mice (female) of 7-9 weeks old received a subcutaneous injection in the right front flank region with 5×10^6 tumor cells in 0.1 ml of PBS mixed with Matrigel (1:1) for tumor development. When tumors reached an average size of 100-200 mm^3, randomization was performed into 5 groups of 8 mice and treatment began. Randomization will be performed based on “Matched distribution” method (Study Director™ Software, version 3.1.399.19). The date of randomization will be denoted as day 0.
(§2) Electronic caliper measurement were performed 2 times a week. Daily observations for clinical signs, food and water consumption, behavioral changes, animals were weighed 2 times per week. […]
Observation and data collection: After tumor cells inoculation, the animals are checked daily for morbidity and mortality. […] Tumor volumes are measured every 3-4 days in two dimensions using an caliper, and the volume data are expressed in mm3 using the formula: V=(L×W×W)/2, where V is tumor volume, L is tumor length (the longest tumor dimension) and W is tumor width (the longest tumor dimension perpendicular to L). […]

[2] = system: A431 (PTK7+, ATCC CRL-1555) cells; assay: In vitro cytotoxicity, resazurin viability; type: cell-based; conditions: 5 days incubation
Method: A431 (PTK7+, ATCC CRL-1555) cells were plated in 96-well plates (10000 cells in 150 μL/well) in DMEM (ATCC) supplemented with 10% fetal bovine serum (FBS) (Invitrogen) and incubated overnight in a humidified atmosphere at 37° C. and 5% CO2. ADCs were added in triplo in a square root of 10 dilution series to obtain a final concentration ranging from 100 nM-0.01 nM. The cells were incubated for 5 days in a humidified atmosphere at 37° C. and 5% CO2. The culture medium was replaced by 0.01 mg/mL resazurin (Sigma Aldrich) in DMEM supplemented with 10% FBS (200 μL/well). After approximately 4 hours in a humidified atmosphere at 37° C. and 5% CO2 the fluorescence was detected with a fluorescence plate reader (Infinite® M1000 Tecan) at 560 nm excitation and 590 nm emission. The relative fluorescent units (RFU) were normalized to cell viability percentage by setting wells without cells at 0% viability and wells with untreated cells at 100% viability (see FIG. 9). IC50 values for ADCs on A431 cells were calculated by non-linear regression using Graphpad prism software and are shown in the table below: […]

[3] = system: PTK7 expressing NCl—H446 tumor model; assay: In vivo efficacy study, NCl—H446 xenograft (Example 30); parameters: species or system BALB/c nude mice; conditions: single IV dose; cofetuzumab-3 2.59, 5.18, 10.36 mg/kg; cofetuzumab-5b 2.59, 5.18 mg/kg; cofetuzumab-Aur0101 2.33 mg/kg; up to t=44 days
Method: as §1
BALB/c nude mice (female) of 7-9 weeks old received a subcutaneous injection in the right front flank region with 5×10^6 tumor cells in 0.1 ml of PBS mixed with Matrigel (1:1) for tumor development. When tumors reached an average size of 100-200 mm^3, randomization was performed into 10 groups of 8 mice and treatment began. Randomization will be performed based on “Matched distribution” method (Study Director™ Software, version 3.1.399.19). The date of randomization will be denoted as day 0.
as §2
Observation and data collection. […] Tumor volumes are measured every 3-4 days in two dimensions using an caliper, and the volume data are expressed in mm3 using the formula: V=(L×W×W)/2, where V is tumor volume, L is tumor length (the longest tumor dimension) and W is tumor width (the longest tumor dimension perpendicular to L). […]

[4] = Stability of ADCs in human plasma (DAR by RP-UPLC); type: in vitro ADME
Method: (§3) General procedure for analytical RP-UPLC (DTT treated samples): Prior to RP-UPLC analysis, IgG (10 μL, 1 mg/mL in PBS pH 7.4) was added to 12.5 mM DTT, 100 mM TrisHCl pH 8.0 (40 μL) and incubated for 15 minutes at 37° C. The reaction was quenched by adding 49% acetonitrile, 49% water, 2% formic acid (50 μL). RP-UPLC analysis was performed on a Waters Acquity UPLC-SQD. The sample (5 μL) was injected with 0.4 mL/min onto Bioresolve RP mAb 2.1*150 mm 2.7 μm (Waters) with a column temperature of 70° C. A linear gradient was applied in 9 minutes from 30 to 54% acetonitrile in 0.1% TFA and water. Absorbance of eluted peaks was measured at 215 nm followed by automated integration (MassLynx, Waters) to determine reaction conversion.
(§4) Stability of ADCs in mice and human plasma was tested. Prior to the assay, the plasma was depleted from all IgG using CaptivA® Protein A agarose (1 mL agarose/mL serum). ADCs were added to the depleted human/mouse serum to a final concentration of 0.1 mg/mL followed by incubation at 37° C. At each time point, 0.5 mL was snap frozen and stored at −80° C. until further analysis. To isolate the ADCs after incubation, 20 μl CaptivA® Protein A agarose resin was added to the samples and incubated for 1 hour at room temperature. The resin was washed three times with PBS and subsequently 0.1 M Glycine-HCl pH 2.7 (0.4 mL) was added to elute the ADCs. After elution, the samples were immediately neutralized with 1.0 M Tris pH 8.0 (0.1 mL). The samples were spin-filtered against PBS for three times using Amicon Ultra spin-filter 0.5 mL MWCO 10 kDa (Merck Millipore) and the volume was reduced to 40 μL, yielding a final ADC concentration of approximately 1 mg/mL. Samples were analyzed on RP-UPLC (DTT reduced) to determine the DAR, tables below.

[5] = Stability of ADCs in mice plasma (DAR by RP-UPLC); type: in vitro ADME
Method: as §3, §4

[6] = human plasma, 0.1 mg/mL, 37° C.

## O=C(c1cc(Cc2n[nH]c(=O)c3ccccc23)ccc1F)N1CCN(C(=O)C2CC2)CC1 [Olaparib]
[1]
  in vivo efficacy (tumor volume over time), single treatment: no significant effect

## B12-3: B12(6-N3-GalNAc)2 conjugated with BCN—HS-PEG2-HS-(va-PAB-Ex)2 3; negative / isotype control ADC [reference compound]
[2]
  IC50: > 100 nM

## cofetuzumab-5b: cofetuzumab(6-N3-GalNAc)2 conjugated with BCN—HS-vc-PABC-calicheamicin 5b; average DAR 1.93
[3]
  in vivo efficacy (tumor volume over time): tumor growth delay
[2]
  IC50: 0.1 nM

## cofetuzumab-Aur0101: TCEP-reduced cofetuzumab conjugated with Auristatin0101; average DAR 4.3; conventional comparator ADC [reference compound]
[3]
  in vivo efficacy (tumor volume over time): only marginal tumor growth delay
[4]; human plasma table, direct measurement (not through isolation from plasma with protA agarose resin)
  DAR t = 0: 4.21*
[4]; [6]
  DAR t = 3: 3.61
  DAR t = 14: 2.67
  DAR t = 14, % of t = 0: 63%
[5]; mice plasma table, direct measurement (not through isolation from plasma with protA agarose resin)
  DAR t = 0: 4.21*
[5]; mice plasma, 0.1 mg/mL, 37° C.
  DAR t = 1: 3.64
  DAR t = 3: 3.26
  DAR t = 7: 2.46
  DAR t = 7, % of t = 0: 58%
